Assay results published in the RNAGym collection of RNA variant scans (doi:10.7554/elife.80360).

B1: CPEB3 Ribozyme (parent)
chain: GGGGGCCACAGCAGAAGCGUUCACGUCGCGGCCCCUGUCAGAUUCUGGUGAAUCUGCGAAUUCUGCUGU

Variants of: B1
Experiment: self-cleavage, relative activity (ratio to wild type); higher = more cleavage; co-transcriptional

Point of comparison: GGGGGCCACAGCAGAAGCGUUCACGGCGCGGCCCCUGUCAGAUUCUGGUGAAUCUGCGCAUUCUGCUGU, self-cleavage 0.36. Against it:
- GGGGGCCACAGCAGAAGCGUUCACGGCGCGGCCCCUGUCAGAUUCUGGUGAAUCUACGAAUUCUGCUGU — higher, 0.729
- GGGGGCCACAGCAGAAGCGUUCACGGCGCGGCCCCUGUCAGAUUCUGGUGAAUCUUCGAAUUCUGCUGU — higher, 0.814
- GGGGGCCACAGCAGAAGCGUUCACGGCGCGGCCCCUGUCAGAUUCUGGUGAAUCUCCGAAUUCUGCUGU — lower, 0.356
- GGGGGCCACAGCAGAAGCGUUCACGGCGCGGCCCCUGUCAGAUUCUGGUGAAUCUGCGAAUUCUGCUCU — higher, 0.932
- GGGGGCCACAGCAGAAGCGUUCACGGCGCGGCCCCUGUCAGAUUCUGGUGAAUCUGCGAAUUCUGCUAU — higher, 1.01
- GGGGGCCACAGCAGAAGCGUUCACGGCGCGGCCCCUGUCAGAUUCUGGUGAAUCUGCGAAUUCUGCUUU — higher, 0.968
- GGGGGCCACAGCAGAAGCGUUCACGGCGCGGCACCUGUCAGAUUCUGGUGAAUCUGCGAAUUCUGCUGU — higher, 0.827
- GGGGGCCACAGCAGAAGCGUUCACGGCGCGGCUCCUGUCAGAUUCUGGUGAAUCUGCGAAUUCUGCUGU — higher, 0.833
- GGGGGCCACAGCAGAAGCGUUCACGGCGCGGCGCCUGUCAGAUUCUGGUGAAUCUGCGAAUUCUGCUGU — higher, 0.437
- GGGGGCCACAGCAGAAGCGUUCACGGCGCGGCCCCUGGCAGAUUCUGGUGAAUCUGCGAAUUCUGCUGU — lower, 0.171
- GGGGGCCACAGCAGAAGCGUUCACGGCGCGGCCCCUGCCAGAUUCUGGUGAAUCUGCGAAUUCUGCUGU — higher, 0.664
- GGGGGCCACAGCAGAAGCGUUCACGGCGCGGCCCCUGACAGAUUCUGGUGAAUCUGCGAAUUCUGCUGU — higher, 0.375
- GGGGGCCACAGCAGAAGCGUUCACGGCGCGGCCCCUGUGAGAUUCUGGUGAAUCUGCGAAUUCUGCUGU — higher, 0.756
- GGGGGCCACAGCAGAAGCGUUCACGGCGCGGCCCCUGUAAGAUUCUGGUGAAUCUGCGAAUUCUGCUGU — higher, 0.406
- GGGGGCCACAGCAGAAGCGUUCACGGCGCGGCCCCUGUUAGAUUCUGGUGAAUCUGCGAAUUCUGCUGU — higher, 0.731
- GGGGGCCACAGCAGAAGCGUUCACGGCGCGGCCCCUGUCAGAUUCUGGUGAGUCUGCGAAUUCUGCUGU — higher, 0.914
- GGGGGCCACAGCAGAAGCGUUCACGGCGCGGCCCCUGUCAGAUUCUGGUGACUCUGCGAAUUCUGCUGU — higher, 0.912
- GGGGGCCACAGCAGAAGCGUUCACGGCGCGGCCCCUGUCAGAUUCUGGUGAUUCUGCGAAUUCUGCUGU — higher, 0.868
- GGGGGCCACAGCAGAAGCGUUCACGGCGCGGCCCCUGUCAGAUUCUGGUUAAUCUGCGAAUUCUGCUGU — higher, 0.928
- GGGGGCCACAGCAGAAGCGUUCACGGCGCGGCCCCUGUCAGAUUCUGGUAAAUCUGCGAAUUCUGCUGU — higher, 0.927
- GGGGGCCACAGCAGAAGCGUUCACGGCGCGGCCCCUGUCAGAUUCUGGUCAAUCUGCGAAUUCUGCUGU — higher, 0.962
- GGGGGCCACAGCAGAAGCGUUCACGGCCCGGCCCCUGUCAGAUUCUGGUGAAUCUGCGAAUUCUGCUGU — lower, 0.133
- GGGGGCCACAGCAGAAGCGUUCACGGCGCGGCCUCUGUCAGAUUCUGGUGAAUCUGCGAAUUCUGCUGU — higher, 0.95
- GGGGGCCACAGCAGAAGCGUUCACGGCGCGGCCGCUGUCAGAUUCUGGUGAAUCUGCGAAUUCUGCUGU — higher, 0.409
- GGGGGCCACAGCAGAAGCGUUCACGGCGCGGCCCCUAUCAGAUUCUGGUGAAUCUGCGAAUUCUGCUGU — lower, 0.21
- GGGGGCCACAGCAGAAGCGUUCACGGCGCGGCCCCUUUCAGAUUCUGGUGAAUCUGCGAAUUCUGCUGU — lower, 0.185
- GGGGGCCACAGCAGAAGCGUUCACGGCGCGGCCCCUGUCAGAUUCUGGUGAAUCUGCGAUUUCUGCUGU — higher, 0.393
- GGGGGCCACAGCAGAAGCGUUCACGGCGCGGCCCCUGUCAGAUUCUGGUGAAUCUGCGGAUUCUGCUGU — higher, 0.959
- GGGGGCCACAGCAGAAGCGUUCACGGCGCGGCCCCUGUCAAAUUCUGGUGAAUCUGCGAAUUCUGCUGU — higher, 0.539
- GGGGGCCACAGCAGAAGCGUUCACGGCGCGGCCCCUGUCACAUUCUGGUGAAUCUGCGAAUUCUGCUGU — higher, 0.561
- GGGGGCCACAGCAGAAGCGUUCACGGCGCGGCCCCUGUCAGAUUCUGGUGGAUCUGCGAAUUCUGCUGU — higher, 0.787
- GGGGGCCACAGCAGAAGCGUUCACGGCGCGGCCCCUGUCAGAUUCUGGUGCAUCUGCGAAUUCUGCUGU — higher, 0.838
- GGGGGCCACAGCAGAAGCGUUCACGGCGCGGCCCCUGUCAGAUUCUGGUGUAUCUGCGAAUUCUGCUGU — higher, 0.871
- GGGGGCCACAGCAGAAGCGUUCACGGCGCGGCCCCUGUCAGAUACUGGUGAAUCUGCGAAUUCUGCUGU — higher, 0.925
- GGGGGCCACAGCAGAAGCGUUCACGGCGCGGCCCCUGUCAGAUGCUGGUGAAUCUGCGAAUUCUGCUGU — higher, 0.811
- GGGGGCCACAGCAGAAGCGUUCACGGCGCGGCCCCUGUCAGAUCCUGGUGAAUCUGCGAAUUCUGCUGU — higher, 0.866
- GGGGGCCACAGCAGAAGCGUUCACGGCGCGGCCCCUGUCAGUUUCUGGUGAAUCUGCGAAUUCUGCUGU — higher, 0.828
- GGGGGCCACAGCAGAAGCGUUCACGGCGCGGCCCCUGUCAGCUUCUGGUGAAUCUGCGAAUUCUGCUGU — higher, 0.86
- GGGGGCCACAGCAGAAGCGUUCACGGCGCGGCCCCUGUCAGAUUCUCGUGAAUCUGCGAAUUCUGCUGU — higher, 0.965
- GGGGGCCACAGCAGAAGCGUUCACGGCGUGGCCCCUGUCAGAUUCUGGUGAAUCUGCGAAUUCUGCUGU — lower, 0.318
- GGGGGCCACAGCAGAAGCGUUCACGGCGGGGCCCCUGUCAGAUUCUGGUGAAUCUGCGAAUUCUGCUGU — higher, 0.414
- GGGGGCCACAGCAGAAGCGUUCACGGCGCGACCCCUGUCAGAUUCUGGUGAAUCUGCGAAUUCUGCUGU — higher, 0.555
- GGGGGCCACAGCAGAAGCGUUCACGGCGCGGCCCCUGUCUGAUUCUGGUGAAUCUGCGAAUUCUGCUGU — higher, 0.602
- GGGGGCCACAGCAGAAGCGUUCACGGCGCGGCCCCUGUCCGAUUCUGGUGAAUCUGCGAAUUCUGCUGU — higher, 0.395
- GGGGGCCACAGCAGAAGCGUUCACGGCGCGGCCCCUGUCGGAUUCUGGUGAAUCUGCGAAUUCUGCUGU — higher, 0.75
- GGGGGCCACAGCAGAAGCGUUCACGGCGCGGCCCCUGUCAGAUUGUGGUGAAUCUGCGAAUUCUGCUGU — higher, 0.87
- GGGGGCCACAGCAGAAGCGUUCACGGCGCGGCCCCUGUCAGAUUAUGGUGAAUCUGCGAAUUCUGCUGU — higher, 0.951
- GGGGGCCACAGCAGAAGCGUUCACGGGGCGGCCCCUGUCAGAUUCUGGUGAAUCUGCGAAUUCUGCUGU — lower, 0.34
- GGGGGCCACAGCAGAAGCGUUCACGGUGCGGCCCCUGUCAGAUUCUGGUGAAUCUGCGAAUUCUGCUGU — higher, 0.605
- GGGGGCCACAGCAGAAGCGUUCACGGCGCGGCCCCUGUCAGAUUCUGGUGAAUCUGCGAAUUCUCCUGU — higher, 0.646
- GGGGGCCACAGCAGAAGCGUUCACGGCGCGGCCCCUGUCAGAUUCUGGUGAAUCUGCGAAUUCUACUGU — higher, 0.643
- GGGGGCCACAGCAGAAGCGUUCACGGCGCGGCCCCUGUCAGAUUCUGUUGAAUCUGCGAAUUCUGCUGU — higher, 0.923
- GGGGGCCACAGCAGAAGCGUUCACGGCGCGGCCCCUGUCAGAUUCUGGUGAAUCUGAGAAUUCUGCUGU — lower, 0.339
- GGGGGCCACAGCAGAAGCGUUCACGGCGCGGCCCCUGUCAGAUUCUGGUGAAUCUGGGAAUUCUGCUGU — lower, 0.172
- GGGGGCCACAGCAGAAGCGUUCACGGCGCGGCCCCGGUCAGAUUCUGGUGAAUCUGCGAAUUCUGCUGU — lower, 0.198
- GGGGGCCACAGCAGAAGCGUUCACGGCGCGGCCCCCGUCAGAUUCUGGUGAAUCUGCGAAUUCUGCUGU — higher, 0.42
- GGGGGCCACAGCAGAAGCGUUCACGGCGCGGCCCCUGUCAGAAUCUGGUGAAUCUGCGAAUUCUGCUGU — higher, 0.766
- GGGGGCCACAGCAGAAGCGUUCACGGCGCGGCCCCUGUCAGAGUCUGGUGAAUCUGCGAAUUCUGCUGU — higher, 0.801
- GGGGGCCACAGCAGAAGCGUUCACGGCGCGGCCCCUGUCAGACUCUGGUGAAUCUGCGAAUUCUGCUGU — higher, 0.863
- GGGGGCCACAGCAGAAGCGUUCACGGCGCGGCCCCUGUCAGAUUCUGGUGAAUGUGCGAAUUCUGCUGU — higher, 0.694
- GGGGGCCACAGCAGAAGCGUUCACGGCGCGGCCCCUGUCAGAUUCUGGUGAAUAUGCGAAUUCUGCUGU — higher, 0.708
- GGGGGCCACAGCAGAAGCGUUCACGGCGCGGCCCCUGUCAGAUUCUGGUGAAUUUGCGAAUUCUGCUGU — higher, 0.931
- GGGGGCCACAGCAGAAGCGUUCACGGCGCGGCCCCUGUCAGAUUCUGGUGAAUCUGCGAAUUUUGCUGU — higher, 0.893
- GGGGGCCACAGCAGAAGCGUUCACGGCGCGGCCCCUGUCAGAUUCUGGUGAAUCUGCGAAUUAUGCUGU — higher, 0.581
- GGGGGCCACAGCAGAAGCGUUCACGGCGCGGCCCCUGUCAGAUUCUGGUGAAUCUGCGAAUUCUGGUGU — higher, 0.693
- GGGGGCCACAGCAGAAGCGUUCACGGCGCGGCCCCUGUCAGAUUCUGGUGAAUCUGCGAAUUCUGCUGU — higher, 0.924
- GGGGGCCACAGCAGAAGCGUUCACGGCGCGGGCCCUGUCAGAUUCUGGUGAAUCUGCGAAUUCUGCUGU — lower, 0.234
- GGGGGCCACAGCAGAAGCGUUCACGGCGCGGACCCUGUCAGAUUCUGGUGAAUCUGCGAAUUCUGCUGU — higher, 0.552
- GGGGGCCACAGCAGAAGCGUUCACGGCGCGGCCCAUGUCAGAUUCUGGUGAAUCUGCGAAUUCUGCUGU — lower, 0.184
- GGGGGCCACAGCAGAAGCGUUCACGGCGCGGCCCGUGUCAGAUUCUGGUGAAUCUGCGAAUUCUGCUGU — lower, 0.241
- GGGGGCCACAGCAGAAGCGUUCACGGCGCUGCCCCUGUCAGAUUCUGGUGAAUCUGCGAAUUCUGCUGU — lower, 0.164
- GGGGGCCACAGCAGAAGCGUUCACGGCGCCGCCCCUGUCAGAUUCUGGUGAAUCUGCGAAUUCUGCUGU — lower, 0.284
- GGGGGCCACAGCAGAAGCGUUCACGGCGCGGCCCCUGUCAGAUUCUGGUGAAUCUGCUAAUUCUGCUGU — higher, 0.87
- GGGGGCCACAGCAGAAGCGUUCACGGCGCGGCCCCUGUCAGAUUCUGGUGAAUCUGCAAAUUCUGCUGU — higher, 0.557
- GGGGGCCACAGCAGAAGCGUUCACGGCGCGGCCCCUGUCAGAUUCGGGUGAAUCUGCGAAUUCUGCUGU — higher, 0.86
- GGGGGCCACAGCAGAAGCGUUCACGGCGCGGCCCCUGUCAGAUUCAGGUGAAUCUGCGAAUUCUGCUGU — higher, 0.854
- GGGGGCCACAGCAGAAGCGUUCACGGCGCGGCCCCUGUCAGAUUCCGGUGAAUCUGCGAAUUCUGCUGU — higher, 0.86
